Measured values from US20240254229A1 (Molecular Partners, published 2024).

Tests used:
[1] = target: T1, biotinylated extracellular domains of human CD123 (uniprot ID 26951), Fc format (human, UniProt P26951 19-305, biotinylated); experiment: SPR (ProteOn), biotinylated target on chip
T1 construct: extracellular domain
T1 sequence (looked up): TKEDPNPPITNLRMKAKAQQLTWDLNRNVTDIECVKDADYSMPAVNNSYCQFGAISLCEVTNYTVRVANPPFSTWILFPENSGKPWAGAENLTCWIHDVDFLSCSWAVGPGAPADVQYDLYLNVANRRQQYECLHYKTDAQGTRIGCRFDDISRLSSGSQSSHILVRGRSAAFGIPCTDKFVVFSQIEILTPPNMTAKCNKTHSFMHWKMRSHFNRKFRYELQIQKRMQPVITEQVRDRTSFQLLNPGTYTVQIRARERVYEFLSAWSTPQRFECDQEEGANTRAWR
Procedure: (§1) Briefly, biotinylated human scCD3εγ was diluted in PBST (PBS, pH 7.4 containing 0.005% Tween 200) and coated on a NLC chip (BioRad) to a level of around 700-1400 resonance units (RU). The interaction of ankyrin repeat protein and human CD3 was then measured by injecting 300 μl running buffer (PBS, pH 7.4 containing 0.005% Tween 200) containing serial dilutions of ankyrin repeat proteins covering a concentration range between 64 nM and 4 nM for multi-trace SPR measurements, followed by a running buffer flow for at least 10 minutes at a constant flow rate of 60 μl/min (off-rate measurement). The regeneration was performed using 30 μl of 10 mM Glycine pH 2. The signals (i.e. resonance unit (RU) values) of the interspots and a reference injection (i.e. injection of running buffer only) were subtracted from the RU traces obtained after injection of ankyrin repeat protein (double-referencing). While binding was too weak for DARPin® protein #7, binding parameters (KD, on-rate, off-rate) against CD3 were determined for affinity matured constructs. On-rates (kₒₙ) and dissociation constants (KD) are given only as approximation because binding equilibrium was not appropriately reached even at highest samples concentration, leading to non-optimal fits for on-rates.
(§2) The binding affinities of two purified ankyrin repeat proteins on recombinant human CD33 and CD123 target respectively were analyzed using a ProteOn instrument (BioRad) and the measurement was performed according standard procedures known to the person skilled in the art. For that, DARPin® protein #25 (with binding specificity for CD33 and CD3), DARPin® protein #26 (with binding specificity for CD123 and […]) of the invention were subcloned and expressed as described above into derivatives of the pQE30 (Qiagen) expression vector, containing an N-terminal His-tag, CD33 or CD123 binding ankyrin repeat domains respectively, followed by one of the four CD3 specific ankyrin repeat protein constructs. The following steps were performed as described in A above. Briefly, biotinylated extracellular domains of human CD33 (provided by Speed BioSystems, Lot no cat #YCP2045) as target protein was used for the assessment of DARPin® protein #25 and biotinylated extracellular domains of human (uniprot ID 26951) for the assessment of DARPin® protein #26 accordingly.

[2] = target: T2, biotinylated extracellular domain of human CD33 (SEQ ID NO: 87), Fc and Avi tagged (human, UniProt P20138 18-259, biotinylated with BirA-GST (Avi tag)); experiment: crude extract HTRF, 6 nM biotinylated hCD33
T2 construct: also called hCD33; human target hCD33
T2 sequence (P20138 18-259 R69G): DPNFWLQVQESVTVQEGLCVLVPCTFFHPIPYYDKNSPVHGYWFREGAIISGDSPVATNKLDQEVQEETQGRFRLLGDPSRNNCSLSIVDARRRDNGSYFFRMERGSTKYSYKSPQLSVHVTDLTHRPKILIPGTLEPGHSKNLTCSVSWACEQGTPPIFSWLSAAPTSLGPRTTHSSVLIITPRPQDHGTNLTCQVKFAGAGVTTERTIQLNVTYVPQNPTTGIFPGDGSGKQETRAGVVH
Excerpt: Similarly, individual selected ankyrin repeat proteins specifically binding to hCD33 in solution were identified by a Homogeneous Time Resolved Fluorescence (HTRF) assay using crude extracts of ankyrin repeat protein-expressing Escherichia coli cells using standard protocols. Ankyrin repeat protein clones selected by ribosome display were cloned into derivatives of the pQE30 (Qiagen) expression vector (pMPDV045), which contains a C-terminal CD3 binding designed ankyrin repeat protein followed by a Flag tag, transformed into E. coli XL1-Blue (Stratagene), plated on LB-agar (containing 1% glucose and 50 μg/ml ampicillin) and then incubated overnight at 37° C. […]
The extract of each lysed clone was applied as a 1:1000 dilution (final concentration) in PBSTB (PBS supplemented with 0.1% Tween 20® and 0.2% (w/v) BSA, pH 7.4) together with 6 nM (final concentration) biotinylated hCD33 (full-length or splice variant of ECD CD33), 1:400 (final concentration) of anti-strep-Tb HTRF antibody-FRET donor conjugate (Cisbio) and 1:400 (final concentration) of anti-6His-D2 antibody FRET acceptor conjugate (Cisbio) to a well of 384 well plate and incubated for 60 minutes at RT. The HTRF was read-out on a Tecan M1000 using a 340 nm excitation wavelength and a 665±10 nm emission filter. […]

[3] = target: T3, biotinylated extracellular domains of human CD33 (Speed BioSystems, cat #YCP2045) (human, UniProt P20138 18-259, biotinylated); experiment: SPR (ProteOn), biotinylated target on chip
T3 construct: extracellular domain
T3 sequence (P20138 18-259): as the sequence (P20138 18-259 R69G) above, with G52R counted along it
Procedure: as §1, §2

[4] = target: T4, human CD3 on primary human pan-T cells (human, UniProt P07766 23-207; P09693 23-182; P04234 22-171; P20963 22-164); experiment: Mirrorball cytometry on primary human pan-T cells, 600 µM HSA
T4 construct: whole, on cells; Native complex on T cells isolated from PBMC; also called CD3 on Pan-T cells
T4 sequence (P07766 23-207, chain 1 of 4): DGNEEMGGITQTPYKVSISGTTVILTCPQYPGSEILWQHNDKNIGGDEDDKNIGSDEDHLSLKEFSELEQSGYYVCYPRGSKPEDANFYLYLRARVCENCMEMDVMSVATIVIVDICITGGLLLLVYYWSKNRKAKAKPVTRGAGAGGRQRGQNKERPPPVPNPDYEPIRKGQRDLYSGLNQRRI
T4 sequence (P09693 23-182, chain 2 of 4): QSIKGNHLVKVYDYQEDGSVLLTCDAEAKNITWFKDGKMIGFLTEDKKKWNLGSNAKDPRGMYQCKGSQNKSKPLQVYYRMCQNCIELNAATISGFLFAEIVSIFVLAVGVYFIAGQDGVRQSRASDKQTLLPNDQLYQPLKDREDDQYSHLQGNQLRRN
T4 sequence (P04234 22-171, chain 3 of 4): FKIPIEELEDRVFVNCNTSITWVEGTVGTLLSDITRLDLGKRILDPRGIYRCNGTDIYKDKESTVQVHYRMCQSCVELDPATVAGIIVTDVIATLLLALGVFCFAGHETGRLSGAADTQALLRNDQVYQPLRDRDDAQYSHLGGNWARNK
T4 sequence (P20963 22-164, chain 4 of 4): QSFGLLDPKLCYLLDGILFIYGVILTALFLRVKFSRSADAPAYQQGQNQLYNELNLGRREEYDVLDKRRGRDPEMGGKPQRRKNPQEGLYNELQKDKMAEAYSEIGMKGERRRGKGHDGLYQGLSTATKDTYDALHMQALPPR
Procedure: The determination of CD3 binding was performed with primary human T cells using Mirrorball laser scanning imaging cytometry. Therefore, primary T cells were isolated from human peripheral blood mononuclear cells (PBMCs) using a pan-T cell purification kit (Miltenyi Biotec). A titration of DARPin® protein #7, DARPin® protein #8 and DARPin® protein #9 and DARPin® protein #10, formatted into a trispecific format (including CD33 and CD123 binding ankyrin repeat domains), DARPin® protein #11, DARPin® protein #12, DARPin® protein #13 and DARPin® protein #14 UN tetraspecific format (including an additional ankyrin repeat domain binding specifically to human serum albumin) were incubated with 50′000 pan-T cells per well in presence of 600 μM human serum albumin (to mimic physiological serum concentration) for 30 minutes at 4° C. Two benchmark T-cell engagers, AMG330 and flotetuzumab were applied as controls, targeting CD33 or CD123. After washing, CD3 binding was detected by 1:100-diluted anti-penta-His Alexa Fluor 488 antibody (Qiagen). After 30 min incubation at 4° C., cells were washed and resuspended in Cytofix fixation buffer (BD Biosciences) and counterstained by 5 μM DRAQ5 (Abcam) for 15 min at RT. Median of mean fluorescence intensities of Alexa Fluor 488 binding on far-red counterstained cells were measured by Mirrorball using Cellista software (SPT Labtech) and data was plotted using GraphPad Prism 8.

[5] = target: T5, human scCD3εγ (scCD3εγ_Avi-Bio) (human, biotin on the C-terminal Avi-tag (in vitro, BirA) where the biotinylated form was used); experiment: SPR (ProteOn), biotinylated scCD3εγ on NLC chip, DARPin as analyte
T5 construct: Used for all SPR and HTRF results on human CD3; also called recombinant human CD3; human CD3
T5 chain: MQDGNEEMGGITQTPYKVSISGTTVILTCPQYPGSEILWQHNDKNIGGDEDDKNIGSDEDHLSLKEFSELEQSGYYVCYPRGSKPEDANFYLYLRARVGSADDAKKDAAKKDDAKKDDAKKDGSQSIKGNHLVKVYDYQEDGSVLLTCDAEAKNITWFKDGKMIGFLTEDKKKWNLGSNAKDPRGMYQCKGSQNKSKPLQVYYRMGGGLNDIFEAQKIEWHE
Procedure: The binding affinities of four purified ankyrin repeat proteins on recombinant human CD3 target were analyzed using a ProteOn instrument (BioRad) and the measurement was performed according standard procedures known to the person skilled in the art. For that, DARPin® protein #7, DARPin® protein #8 and DARPin® protein #9 and DARPin® protein #10 of the invention were subcloned and expressed as described above into derivatives of the pQE30 (Qiagen) expression vector, containing an N-terminal His-tag, CD33 and CD123 binding ankyrin repeat domains, followed by one of the four CD3 specific ankyrin repeat protein constructs.
as §1
Dissociation constants (KD) were calculated from the estimated on- and off-rates using standard procedures known to the person skilled in the art.

Binder | binding result [2] | EC50 [4] | Kd [5] | koff [5] | kon [5] | other results
DARPin® protein #26 (designed binder, not shown: N-terminal His-tag) DLGKKLLEAARAGQDDEVRILMANGADVNALDWLGHTPLHLAAYEGHLEIVEVLLKNGADVNAIDDNNGFTPLHLAAIDGHLEIVEVLLKNGADVNAQDKFGKTAFDISIDNGNEDLAEILQKAAGSPTPTPTTPTPTPTTPTPTPTGSDLGQKLLEAAWAGQDDEVRILLAAGADVNAKNSRGWTPLHTAAQTGHLEIFEVLLKAGADVNAKNDKRVTPLHLAAALGHLEIVEVLLKAGADVNARDSWGTTPADLAAKYGHGDIAEVLQKLN | – | – | – | – | – | Kd [1]: 9.5 nM; koff [1]: 0.017 s⁻¹; kon [1]: 1.79e+06 M⁻¹ s⁻¹
DARPin® protein #25 (designed binder, CD33-CD3; not shown: N-terminal His-tag) DLGDKLLLAATSGQDDEVRILLAAGADVNAKDYDGDTPLHLAADEGHLEIVEVLLKAGADVNAKDYSGSTPLHAAAAYGHLEIVEVLLKAGADVNAQDVFGYTPADLAAYVGHEDIAEVLQKAAGSPTPTPTTPTPTPTTPTPTPTGSDLGQKLLEAAWAGQDDEVRILLAAGADVNAKNSRGWTPLHTAAQTGHLEIFEVLLKAGADVNAKNDKRVTPLHLAAALGHLEIVEVLLKAGADVNARDSWGTTPADLAAKYGHGDIAEVLQKLN | – | – | – | – | – | Kd [3]: 7.3 nM; koff [3]: 0.0304 s⁻¹; kon [3]: 4.2e+06 M⁻¹ s⁻¹
DARPin® protein #9 (designed binder, CD123-CD33-CD3 ankyrin repeat protein, no half-life extension; also called DARPin® #9; not shown: N-terminal His-tag) DLGKKLLEAARAGQDDEVRILMANGADVNALDWLGHTPLHLAAYEGHLEIVEVLLKNGADVNAIDDNNGFTPLHLAAIDGHLEIVEVLLKNGADVNAQDKFGKTAFDISIDNGNEDLAEILQKAAGSPTPTPTTPTPTPTTPTPTPTGSDLGDKLLLAATSGQDDEVRILLAAGADVNAKDYDGDTPLHLAADEGHLEIVEVLLKAGADVNAKDYSGSTPLHAAAAYGHLEIVEVLLKAGADVNAQDVFGYTPADLAAYVGHEDIAEVLQKAAGSPTPTPTTPTPTPTTPTPTPTGSDLGQKLLEAAWAGQDDEVRELLKAGADVNAKNSRGWTPLHTAAQTGHLEIFEVLLKAGADVNAKNDKRVTPLHLAAALGHLEIVEVLLKAGADVNARDSWGTTPADLAAKYGHQDIAEVLQKAA | – | 50 to 100 nM | ~15 nM | 0.0013 s⁻¹ | ~89000 M⁻¹ s⁻¹ | –
DARPin® protein #10 (designed binder, CD123-CD33-CD3 ankyrin repeat protein, no half-life extension; also called DARPin® #10; not shown: N-terminal His-tag) DLGKKLLEAARAGQDDEVRILMANGADVNALDWLGHTPLHLAAYEGHLEIVEVLLKNGADVNAIDDNNGFTPLHLAAIDGHLEIVEVLLKNGADVNAQDKFGKTAFDISIDNGNEDLAEILQKAAGSPTPTPTTPTPTPTTPTPTPTGSDLGDKLLLAATSGQDDEVRILLAAGADVNAKDYDGDTPLHLAADEGHLEIVEVLLKAGADVNAKDYSGSTPLHAAAAYGHLEIVEVLLKAGADVNAQDVFGYTPADLAAYVGHEDIAEVLQKAAGSPTPTPTTPTPTPTTPTPTPTGSDLGQKLLEAAWAGQLDEVRILLKAGADVNAKNSRGWTPLHTAAQTGHLEIFEVLLKAGADVNAKTNKRVTPLHLAAALGHLEIVEVLLKAGADVNARDTWGTTPADLAAKYGHRDIAEVLQKAA | – | 5 to 15 nM | ~6 nM | 0.00041 s⁻¹ | ~82000 M⁻¹ s⁻¹ | –

Further lines, with some results ahead:

binding result [2] | EC50 [4] | Kd [5] | koff [5] | kon [5] | Binder | other results
binds | – | – | – | – | DARPin® protein #38 (designed binder, CD33-specific domain) DLGVKLLRAAFHGQDDEVRILLAAGADVNAKDTDGETPLHYAAQFGHLEIVEVLLKAGADVNAKDAYGATPLHWAAWHGHLEIVEVLLKAGADVNAQDVSGATPADLAAKVGHEDIAEVLQKAA | –
binds | – | – | – | – | DARPin® protein #37 (designed binder, CD33-specific domain) DLGWKLLLAASRGQDDEVRILLAAGADVNAKDIDEGYTPLHIAAYYGHLEIVEVLLKAGADVNAKDRYGKTPLHLAAISGHEDIAEVLLKAGADVNAQDDKGDTPADLAADYGHEDIAEVLQKAA | –
